Test results taken from US20240409647A1 (SINOMAB BIOSCIENCE, published 2024).

Tests used:
[1] = biological target: T1, human IL-17 receptor subunit A (human, UniProt Q96F46 33-320); assay: ELISA, coated receptor; SM17 at 0.0032 µg/mL; well 1
T1 construct: also called IL17RA; hIL17RA

[2] = biological target: T2, human IL-17 receptor subunit D (human, UniProt Q8NFM7 28-299, limits assumed); assay: as above
T2 construct: also called IL17RD; hIL 17RD
T2 sequence (looked up): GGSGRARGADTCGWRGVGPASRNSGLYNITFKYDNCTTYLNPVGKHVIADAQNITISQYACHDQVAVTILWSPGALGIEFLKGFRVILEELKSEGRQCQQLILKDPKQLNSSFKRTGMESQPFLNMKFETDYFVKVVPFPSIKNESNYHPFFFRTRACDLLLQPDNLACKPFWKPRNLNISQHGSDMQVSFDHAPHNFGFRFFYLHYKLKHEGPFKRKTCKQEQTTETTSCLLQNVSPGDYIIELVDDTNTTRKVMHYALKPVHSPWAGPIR

[3] = biological target: T1, human IL-17 receptor subunit A; assay: ELISA, coated receptor; SM17 at 0.00064 µg/mL; well 1
[4] = biological target: T2, human IL-17 receptor subunit D; assay: as above
[5] = biological target: T3, human IL-17 receptor subunit C (human, UniProt Q8NAC3-2 21-467, limits assumed); assay: as above
T3 construct: also called IL17RC; hIL17RC
T3 sequence (looked up): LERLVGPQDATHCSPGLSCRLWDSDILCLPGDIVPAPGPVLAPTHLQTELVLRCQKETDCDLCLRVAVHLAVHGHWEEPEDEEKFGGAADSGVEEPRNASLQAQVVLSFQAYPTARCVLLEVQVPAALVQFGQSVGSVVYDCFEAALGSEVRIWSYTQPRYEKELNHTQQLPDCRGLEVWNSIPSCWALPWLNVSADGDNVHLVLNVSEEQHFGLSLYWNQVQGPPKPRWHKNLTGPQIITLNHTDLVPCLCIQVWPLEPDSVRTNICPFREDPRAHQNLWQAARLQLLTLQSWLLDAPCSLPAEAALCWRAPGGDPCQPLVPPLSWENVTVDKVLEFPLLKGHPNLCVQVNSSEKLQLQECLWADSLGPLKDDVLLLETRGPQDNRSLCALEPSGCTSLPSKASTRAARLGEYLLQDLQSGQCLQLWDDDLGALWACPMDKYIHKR

[6] = biological target: T4, human IL-17 receptor subunit E (human, UniProt Q8NFR9 24-454, limits assumed); assay: as above
T4 construct: also called hIL17RE
T4 sequence (looked up): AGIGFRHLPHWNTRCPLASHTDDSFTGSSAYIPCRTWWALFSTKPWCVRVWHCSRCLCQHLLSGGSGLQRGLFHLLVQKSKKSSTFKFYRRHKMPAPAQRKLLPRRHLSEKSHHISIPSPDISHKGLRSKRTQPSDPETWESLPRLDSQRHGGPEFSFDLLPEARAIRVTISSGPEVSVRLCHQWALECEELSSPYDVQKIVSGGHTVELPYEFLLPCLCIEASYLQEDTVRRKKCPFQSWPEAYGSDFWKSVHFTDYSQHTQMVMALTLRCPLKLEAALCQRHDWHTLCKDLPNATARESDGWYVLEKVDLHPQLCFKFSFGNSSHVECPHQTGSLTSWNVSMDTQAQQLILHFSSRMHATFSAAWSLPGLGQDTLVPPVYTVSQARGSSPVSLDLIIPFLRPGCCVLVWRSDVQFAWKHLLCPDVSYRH

[7] = biological target: T5, human IL-17RB protein (recombinant, R&D systems) (human); assay: as above
T5 construct: Bought protein; also called hIL17RB
T5 sequence (Q9NRM6 whole entry, looked up): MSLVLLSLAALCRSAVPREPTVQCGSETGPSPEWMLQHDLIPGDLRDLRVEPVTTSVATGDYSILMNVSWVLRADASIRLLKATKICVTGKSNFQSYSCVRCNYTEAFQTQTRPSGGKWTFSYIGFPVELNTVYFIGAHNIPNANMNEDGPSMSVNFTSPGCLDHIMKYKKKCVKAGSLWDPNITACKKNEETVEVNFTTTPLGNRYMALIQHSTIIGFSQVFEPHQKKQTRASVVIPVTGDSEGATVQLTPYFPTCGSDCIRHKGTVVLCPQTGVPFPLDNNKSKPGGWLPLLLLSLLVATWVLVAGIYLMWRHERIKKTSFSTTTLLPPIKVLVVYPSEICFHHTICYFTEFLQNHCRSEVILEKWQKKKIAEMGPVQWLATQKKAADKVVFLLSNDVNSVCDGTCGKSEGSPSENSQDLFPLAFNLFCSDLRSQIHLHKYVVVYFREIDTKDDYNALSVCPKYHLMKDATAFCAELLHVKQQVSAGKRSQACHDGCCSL

[8] = biological target: T6, cynomolgus monkey IL-17RB protein (recombinant, R&D systems) (cynomolgus monkey, UniProt A0A2K5TUK1 18-289); assay: BLI (Octet RED96), SM17 captured via anti-human Fab CH1, IL17RB in solution; trial 1
T6 construct: also called cynomolgus IL17RB; Cyno-IL17RB
T6 sequence: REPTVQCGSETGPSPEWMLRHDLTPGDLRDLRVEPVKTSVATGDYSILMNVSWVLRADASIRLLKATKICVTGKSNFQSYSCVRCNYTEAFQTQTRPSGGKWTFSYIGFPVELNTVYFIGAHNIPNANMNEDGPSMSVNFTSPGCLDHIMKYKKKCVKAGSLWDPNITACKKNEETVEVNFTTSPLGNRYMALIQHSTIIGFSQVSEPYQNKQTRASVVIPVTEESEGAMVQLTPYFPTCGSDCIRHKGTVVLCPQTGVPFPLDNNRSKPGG
Source text: (§1) Irrelevant antibody (SM03, anti-human CD22 chimeric IgG1 antibody, SinoMab BioScience Limited) was used as the control reference.

[9] = biological target: T5, human IL-17RB protein (recombinant, R&D …); assay: as above
Source text: as §1

OD 450 nm Absorption [1]: 0.2 OD450 | OD 450 nm Absorption [2]: 0.04 OD450 | OD 450 nm Absorption [3]: 0 OD450 | OD 450 nm Absorption [4]: 0.08 OD450 | OD 450 nm Absorption [5]: 0.13 OD450 | OD 450 nm Absorption [6]: 0.09 OD450 | OD 450 nm Absorption [7]: 0.13 OD450 | Kd [8]: 0.852 nM | koff [8]: 2.73e-05 s⁻¹ | kon [8]: 32100 M⁻¹ s⁻¹ | Kd [9]: 0.194 nM | koff [9]: 4.3e-05 s⁻¹ | kon [9]: 222000 M⁻¹ s⁻¹
B1: SM17 (antibody, human IgG4 S228P, kappa, V domains shown)
VH: QVQLVQSGAEVKKPGASVKVSCKASGYTFISYWMNWVRQAPGQGLEWMGRIDPYDSEIQYNQKFKDRVTMTRDTSISTAYMELSRLRSDDTAVYYCARSGGFDWFAYWGQGTLVTVSS
VL: DIQMTQSPSSLSASVGDRVTITCRASENINSNLAWYQQKPGKAPKLLLYDVTNLADGVPSRFSGSGSGTDYTLTISSLQPEDFATYYCQHFWGPPYTFGGGTKVEIKR
notes: other paragraphs and claim 15 call the same entries VH and VL; also called humanized anti-IL17RB monoclonal antibody
